Data: paper PMC9583931, “Emerin interacts with histone methyltransferases to regulate repressive chromatin at the nuclear periphery” (Frontiers in Cell and Developmental Biology, 2022)
Changes are numbered by the printed parent chain. Names and notes keep the numbering of the source.

B1: euchromatic histone lysine methyltransferase 2 (G9a) (enzyme, UniProt Q9Z148 1-1263, looked up)
chain: MRGLPRGRGLMRARGRGRAAPTGGRGRGRGGAHRGRGRPRSLLSLPRAQASWAPQLPAGLTGPPVPCLPSQGEAPAEMGALLLEKEPRGAAERVHSSLGDTPQSEETLPKANPDSLEPAGPSSPASVTVTVGDEGADTPVGAASLIGDEPESLEGDGGRIVLGHATKSFPSSPSKGGACPSRAKMSMTGAGKSPPSVQSLAMRLLSMPGAQGAATAGPEPSPATTAAQEGQPKVHRARKTMSKPSNGQPPIPEKRPPEVQHFRMSDDMHLGKVTSDVAKRRKLNSGSLSEDLGSAGGSGDIILEKGEPRPLEEWETVVGDDFSLYYDAYSVDERVDSDSKSEVEALAEQLSEEEEEEEEEEEEEEEEEEEEEEEEEDEESGNQSDRSGSSGRRKAKKKWRKDSPWVKPSRKRRKREPPRAKEPRGVNGVGSSGPSEYMEVPLGSLELPSEGTLSPNHAGVSNDTSSLETERGFEELPLCSCRMEAPKIDRISERAGHKCMATESVDGELLGCNAAILKRETMRPSSRVALMVLCEAHRARMVKHHCCPGCGYFCTAGTFLECHPDFRVAHRFHKACVSQLNGMVFCPHCGEDASEAQEVTIPRGDGGTPPIGTAAPALPPLAHDAPGRADTSQPSARMRGHGEPRRPPCDPLADTIDSSGPSLTLPNGGCLSAVGLPPGPGREALEKALVIQESERRKKLRFHPRQLYLSVKQGELQKVILMLLDNLDPNFQSDQQSKRTPLHAAAQKGSVEICHVLLQAGANINAVDKQQRTPLMEAVVNNHLEVARYMVQLGGCVYSKEEDGSTCLHHAAKIGNLEMVSLLLSTGQVDVNAQDSGGWTPIIWAAEHKHIDVIRMLLTRGADVTLTDNEENICLHWASFTGSAAIAEVLLNAQCDLHAVNYHGDTPLHIAARESYHDCVLLFLSRGANPELRNKEGDTAWDLTPERSDVWFALQLNRKLRLGVGNRAVRTEKIICRDVARGYENVPIPCVNGVDGEPCPEDYKYISENCETSTMNIDRNITHLQHCTCVDDCSSSNCLCGQLSIRCWYDKDGRLLQEFNKIEPPLIFECNQACSCWRSCKNRVVQSGIKVRLQLYRTAKMGWGVRALQTIPQGTFICEYVGELISDAEADVREDDSYLFDLDNKDGEVYCIDARYYGNISRFINHLCDPNIIPVRVFMLHQDLRFPRIAFFSSRDIRTGEELGFDYGDRFWDIKSKYFTCQCGSEKCKHSAEAIALEQSRLARLDPHPELLPDLSSLPPINT
notes: G9a (EHMT2), endogenous protein of mouse myogenic progenitors; also called EHMT2; source: endogenous, mouse myogenic progenitors, in lysate (soluble fraction)
B2: emerin (endogenous, wildtype myogenic progenitors) (natural protein, UniProt O08579 1-259, looked up)
chain: MDDYAVLSDTELAAVLRQYNIPHGPIVGSTRKLYEKKIFEYETQRRRLLPPNSSSSSFSYQFSDLDSAAVDSDMYDLPKKEDALLYQSKDYNDDYYEESYLTTKTYGEPESVGMSKSFRQPGTSLVDADTFHHQVRDDIFSSLEEEGKDRERLIYGQDSAYQSIAHYRPISNVSRSSLGLSYYPTSSTSSVSSSSSSPSSWLTRRAIRPEKQAPAAALGQDRQVPLWGQLLLFLVFAAFLLFVYYSIQAEEGNPFWMDP
notes: emerin, endogenous protein of H2K wildtype mouse myogenic progenitors; also called wildtype emerin; endogenous emerin; source: endogenous, H2K wildtype mouse myogenic progenitors, in lysate (soluble fraction)
B3: emerin S54F (EDMD1 mutant) (natural protein, UniProt P50402 1-254, looked up)
chain: MDNYADLSDTELTTLLRRYNIPHGPVVGSTRRLYEKKIFEYETQRRRLSPPSSFAASSYSFSDLNSTRGDADMYDLPKKEDALLYQSKGYNDDYYEESYFTTRTYGEPESAGPSRAVRQSVTSFPDADAFHHQVHDDDLLSSSEEECKDRERPMYGRDSAYQSITHYRPVSASRSSLDLSYYPTSSSTSFMSSSSSSSSWLTRRAIRPENRAPGAGLGQDRQVPLWGQLLLFLVFVIVLFFIYHFMQAEEGNPF
notes: emerin with the EDMD1-causing mutation S54F; also called S54F emerin
B4: emerin Q133H (EDMD1 mutant) (natural protein, UniProt P50402 1-254, looked up)
chain: B3 chain with F54S, Q133H
notes: emerin with the EDMD1-causing mutation Q133H; also called Q133H emerin
B5: EZH2 (enzyme)
chain: not shown
notes: EZH2, endogenous protein of mouse myogenic progenitors; also called catalytic component of PRC2; source: endogenous, mouse myogenic progenitors, in lysate (soluble fraction)

Legend:
Conditions in all cases: partners not purified
[1] = target: B2; test: co-IP; anti-emerin antibody on protein G magnetic beads, incubated overnight with the soluble fraction of sonicated whole-cell lysates (modified NEHN buffer, 500 mM NaCl, 1% NP-40) of proliferating myogenic progenitors; blot for G9a or EZH2; densitometry, ratio of bound to input
[2] = target: B3; test: as above
[3] = target: B4; test: as above
[4] = target: B1; test: co-IP; anti-G9a antibody on protein G magnetic beads, incubated overnight with the soluble fraction of sonicated whole-cell lysates (modified NEHN buffer, 500 mM NaCl, 1% NP-40) of proliferating myogenic progenitors; blot for emerin; densitometry, ratio of bound to input
EZH2 = target: B5; test: co-IP; anti-EZH2 antibody on protein G magnetic beads, incubated overnight with the soluble fraction of sonicated whole-cell lysates (modified NEHN buffer, 500 mM NaCl, 1% NP-40) of proliferating myogenic progenitors; blot for emerin; densitometry, ratio of bound to input
EZH2, sequence (Q61188 whole entry): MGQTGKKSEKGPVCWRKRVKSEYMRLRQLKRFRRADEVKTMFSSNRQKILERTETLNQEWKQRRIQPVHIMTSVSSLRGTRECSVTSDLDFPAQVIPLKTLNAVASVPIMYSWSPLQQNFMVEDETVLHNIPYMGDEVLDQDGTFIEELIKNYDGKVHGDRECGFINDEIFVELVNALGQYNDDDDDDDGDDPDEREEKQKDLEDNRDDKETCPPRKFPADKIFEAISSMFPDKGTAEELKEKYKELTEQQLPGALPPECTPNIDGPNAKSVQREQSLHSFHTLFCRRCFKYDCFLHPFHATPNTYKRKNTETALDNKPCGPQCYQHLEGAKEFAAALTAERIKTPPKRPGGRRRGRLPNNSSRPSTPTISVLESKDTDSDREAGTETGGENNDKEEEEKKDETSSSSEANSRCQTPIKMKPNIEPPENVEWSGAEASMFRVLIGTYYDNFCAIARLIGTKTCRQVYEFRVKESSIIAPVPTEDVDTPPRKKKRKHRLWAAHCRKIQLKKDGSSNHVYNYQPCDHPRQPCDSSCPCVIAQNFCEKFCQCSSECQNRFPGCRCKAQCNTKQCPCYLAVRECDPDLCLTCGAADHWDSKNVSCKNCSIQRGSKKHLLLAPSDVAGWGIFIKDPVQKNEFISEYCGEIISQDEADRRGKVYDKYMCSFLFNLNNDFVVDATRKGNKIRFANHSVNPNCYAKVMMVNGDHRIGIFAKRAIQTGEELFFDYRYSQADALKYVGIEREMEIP

B1
percent of input bound [1]: 0.2%
percent of input bound [2]: 13.8%
percent of input bound [3]: 9.6%

B2
percent of input bound [4]: 0.76 % of input
percent of input bound (EZH2): 0.7%

B3
percent of input bound [4]: 80.9 % of input
percent of input bound (EZH2): 71.8%

B4
percent of input bound [4]: 45.1 % of input
percent of input bound (EZH2): 77.8%

B5
percent of input bound [1]: 2.4%
percent of input bound [2]: 57.9%
percent of input bound [3]: 89.4%
